In a protein production outcome set (Wang et al. 2014):

Assay: label from the status in PepcDB records
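Also: failed if final PepcDB status was selected cloned or expressed and not failed if soluble or beyond.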

Sequence | protein production
MVNYKEKLDEAIHLTQQKGFEQTRAEWLMLDVFQWTRTDFVVHMHDDMPKAMIMKFDLALQRMLLGEPIQYIVGFASFYGRTFDVNSNCLIPRPETEEVMLHFLQQLEDDATIVDIGTGSGVLAITLKCEKPDLNVIATDISLEAMNMARNNAEKHQSQIQFLTGDALKPLINEGIKLNGLISNPPYIDEKDMVTMSPTVTRFEPHQALFADNHGYAIYESIIEDLPHVMEKGSPVVFEIGYNQGEALKSIILNKFPDKKIDIIKDINGHDRIVSFKW | failed
MSLDKVLVGYWHNWKSTGKDGYKGGSSADFNLSSTQEGYNVINVSFMKTPEGQTLPTFKPYNKTDTEFRAEISKLNAEGKSVLIALGGADAHIELKKSQESDFVNEIIRLVDTYGFDGLDIDLEQAAIEAADNQTVIPSALKKVKDHYRKDGKNFMITMAPEFPYLTSSGKYAPYINNLDSYYDFINPQYYNQGGDGFWDSDLNMWISQSNDEKKEDFLYGLTQRLVTGTDGFIKIPASKFVIGLPSNNDAAATGYVKDPNAVKNALNRLKASGNEIKGLMTWSVNWDAGTNSNGEKYNNTFVNTYAPMLFNNEGHHHHHH | not failed
SGKVILITGASRGIGLQLVKTVIEEDDECIVYGVARTEAGLQSLQREYGADKFVYRVLDITDRSRMEALVEEIRQKHGKLDGIVANAGMLEPVKSISQSNSEHDIKQWERLFDVNFFSIVSLVALCLPLLKSSPFVGNIVFVSSGASVKPYNGWSAYGCSKAALNHFAMDIASEEPSDKVRAVCIAPGVVDTQMQKDIRETLGPQGMTPKALERFTQLYKTSSLLDPKVPAAVLAQLVLKGIPDSLNGQYLRYNDERLGPVQG | not failed
MSNQYDPSQPVVFTDFSPKEGGMRTRLYIEGSNFGNDPTKIHITIGGEKTKTIGADGKKIYCMVPSKAFDGIINVRVDGPDGKPIAEHTFEEEFKYTPATIVGTLLRKVDEDNNSAFQEGSFDEGASIPSNDCMVFDPKYKDGDNRLLFSSNHSDGLHLIDLTERTVKRLFPRTGYSTMYSFTFSADGDTLLFTDDHGQDNTTRANIYYSLRRENFRRIRPYNYGRTAYSLVYMDDGTIFYTTWWEGKVYKMIRNGAIPNIDENAEVAFSLSQISAVGGSHTILFRHPSNKFMYMLSDNFGAVFRADYDPVAKTFGNPSIIAGNMNDKSFKEGTGGSARFNKPQFGVFVKNEKYGEGIGPDNDQYDFYFCDRENHCIWKLDPHGVASLAAGRSNENADGKIWGYVDGNPLHEARFNQPAGLAYDPDTDMFYIGDIDNKGIRYMTTELEHHHHHH | failed
MSKVNQQDIDKLIELVGGRGNIATVSHCITRLRFVLNDPAIARPKEIEQLRMVKGCFTNAGQFQVVIGTEVGDYYKALLATTGQTSADKEQVKQA | not failed
MAQPKFVVAEIVEMEDHPDSDHLHICKVNVGFADPVQIVCGAPNAALGLKTVAALPGAMMPNGSLIFPGALRGVQSYGMLCSALEHHHHHH | failed
MFVLNIFSTTHKQRGLNRASCPPLGNYSNNHTLAYRVKCISEETRDSNSLVSSLNRKLWKTSVAGSDIPMIYSPFLEDMQNTLFASFETVEDYPLSEFLASAQSSKKPARIESWCYQCPKFRKIRLTYLDAGVAAQVFNAVWYPISSLELPILGVDFLSFGGKNVLCVMDFQPLMNDQYYLDKYIQPLHPIRERYADLAGRMSSRFYDENRFFSKELLFGRFDSTKPIYERLFPAFREYLDLYITLAKQTVEDDKSRSIIWQLQCEYDRYSAEKDPAMSLFRSYFGSTWAHRFVYEFLFENSRYESSLDNKT | not failed
MLKVSVITACFNSEKTIEDTILSVLHQTYKNIEYIIIDGASTDSTLEIIQKHRDKIACVMSEKDEGIYDAMNKGIKRSSGDIIALLNSDDFYKDEFVVEKVVHEFERKNCDSVYADLVFVKPDCLEKVVRYYEIGEFNPKTLLYGVVPAHPTLFVKKAIYERYGLYKTDYKISADFEMIIRLFVVQKISFSYLKEVLVVMRTGGVSASGFKSLLLRNKENIRACKENGIQANVFSMLLKYPRKIMGLFKRGKGGLKRND | failed
MNVSNGDLIVEKIVANRKYHALKRQRNVLSWLLTLLMLVVYFGFIGLIAFNKAFLAVPLASGVTTRGIPIAIGVMLFAIIVTAVYVFFSNIVYDKLSRNILEDACK | failed
MNRARTNDRRRAGDGPRRSRSAGRPQNSGRRPAAAPQGGEFALPKTITPALPAVETFAELDLPARMLAALGDQGVTEPFPIQAATLPNSLAGRDVLGRGRTGSGKTLAFGLALLARTAGKRAEPRRPLALVLVPTRELAQQVTDALTPYARAVGLRSATVVGGMSIGRQAGALRSGAEVVVATPGRLKDLIDRGDCALGDVTITVLDEADQMTDMGFMPQVTALLDQVAADGQRMLFSATLDRNVDKLVRRYLTDPVVHSVDPSAGAVTTMEHHVLHVQDEDKQRATIEIAARDGRVIMFLDTKHRVDRLVKHLLKSGVRAAGLHGGKSQPQRTRTLAQFKDGQVTALVATNVAARGIHVDNLDLVVNVDPPGDHKDYLHRGGRTARAGESGSVVTLVTPDQRREMTRLMSLAGITPQVTPVRSGEAELARITGAQTPSGVPVVITAPVVERPRRAAAGAGSPSRGRRGRSAQGRSGGQGTGTQARTGAAQSRTAGQSRTAAQGRPTGESPRRRPRRQSTGGSTGSAA | failed
MDINIGTTHKVFHVLSKIGPAWIVMMADVDVASIITGLQSGAEFGFHMIFVMLILIPPLFIVQNAAGYLGIYSGMGVGEAIRQRYGRRLALLAAIPMASTDILSYIAEYSGIAIGLYMVGVSPYISVPVVFVIHNLIVLMRRYGRIESILMIVSVGLVLFIIVSVALMKPSWHSVILTGLNPIQPYGNHDFDIMIIANLGAIIMPFMIFYQAGASVQKSLLDQDIKISRNETAIGSIVSEVLMVMIVIAGTFIGGYATEPKMLAAALLPFGTYAYYITAAGFVTAGFLALIVISLASSWGIAEALGWKLYSGRRRGMHKAQMKGLTEERSDCDRRKFIYLYMGESIPAAAIALSFSAYLLPLVIDLMIVFVLVLAPVGVLLGLLVSDQKIMNGHRLSKRYMALFWFTLAIIEIAGLYSIITSI | failed
MNHTSDTALLIVNLGTPEAPTAAAVRRYLGEFLSDRRVVSIPPLFWKPLLHMVILPIRGPRSASKYAKVWLQEGSPLSVYTRRIAEGLTQHLPDWRVAWAMRYGAPALTKALDALQAQQVRRIVILPLYPQYSTTTTASVQDVVEAWCKRTPQVQVECIQDYAEDPAWVAAVAASIRRHWQAHGRSEKLMFSFHGLPQRVANNGDPYPQRCQVSASLIAAALNLNESEWVLGYQSRFGAERWLQPYAEPTLWALAESGIRRFDLVCPGFSVDCLETLEEVALGFSETLAARGATMRYIPCLNDDPAHVQALAGLAQRALP | failed
EKDTIAAEHKQEASVLLNLHRNKINYLIGETMARMTSLSIAIDRPVDIKKMQSILEKTFDSEPRFSGLYFLNAKGDVTASTTELKTKVNLADRSFFIKAKETKKTVISDSYSSRITGQPIFTICVPVLDSKRNVTDYLVAAIQIDYLKNLINLLSPDVYIEVVNQDGKMIFASGQASHAEDQKPVSGYLDDISWNMKVYPNPVTIEELSKS | failed
MDLKILSLATDKTTDKLQEFLQTLKDDDLASLLQNQAVKGRAVGTLLRAVLKGSPCSEEDGALRRYKIYSCCIQLVESGDLQQDVASEIIGLLMLEVHHFPGPLLVDLASDFVGAVREDRLVNGKSLELLPIILTALATKKEVLACGKGDLNGEEYKRQLIDTLCSVRWPQRYMIQLTSVFKDVCLTPEEMNLVVAKVLTMFSKLNLQEIPPLVYQLLVLSSKGSRRSVLDGIIAFFRELDKQHREEQSSDELSELITAPADELYHVEGTVILHIVFAIKLDCELGRELLKHLKVALRCF | failed
MDRGGVLRVAAAALPAYAYFYNVGSIGFWLPLHVRELGWPYTYITLIATWYFVAVTLATPLVGLLSDLTRRPGYILAGGMAVVAATSVAIPHVENPPLLMALRALQGLGLAVGLPIALGSLSLIQGVRRGVASTVIASGLGMSGGAFLSGLMVEYLGFPALFYAAAVPAALSTLVALGWRPPPPPSGSPGLLAALRSMPWEVLVVMAGIAVRNTFASGVFSVVSIIFNKIVGISYTATGVVLAINPAVQASVTTVFERIMRGRALLLYSTGLSGTALAFYLYLTAGSALDLAAAQIALGAFYGATVVSGNTMIIALAPSEIRYTASSLYTFAFNIGWILGTSIAGKVMDAAGVDAWIKLAIAGTLVSGLIPLTLLASPRARRI | failed
MENPLFCPDCGMMRDNCTCKGKGRLSFFRNIIRPPEKSDTLNEDLQRRYPHIPPEIIENFPFPQPRPGQLDIINDIYQAIEEGYRYVILEAGTGTGKSAIACTLAGIYQPAYILTMTKQLQDQYAREFGFPVVKGRSNFFCLNDNLESTCDMGTCQTLPSSEKFQCPYGVVRGETLLGEEAFQDSYGNRVFFKTAEHCQYWEQKAEAINSPITLMNYDYAFLELNYVGHFDRRNLMILDEAHNIEDKLMRRLEVTISNKRLSKDIRRTIPPSMLREDDPAEWVLQIEAIADHYSDLELDSMSRRRRDRIKRTIKRLSELRMSLEDEPKNWVIDADDDSVSFKPLRVHHYAHDRLFSYSEVCLFMSATILSERLFCQWLGINPGDAYFVRVDSPFPASRRPIELKIAGKMSRNRIRHTAPETIPILNRILERHKNDKGLIHTHNYRCQRFIMDNIPSRRLIDHKASNREAVLRYFEESDEPLVLVSPSMSEGVDLPYDKCRFQVIYKIPFPYLGDKQVNRRQRMDQRWYAYKTIMTLMQAYGRGMRAHDDSCYTYILDGNIEMIFRSPLYRSLLPEFFKEAIVNE | failed
MKEGTGMVVRSSEITPERISNMRGGKGEVEMAHLLSKEAMHNKARLFARMKLPPGSSVGLHKHEGEFEIYYILLGEGVFHDNGKDVPIKAGDVCFTDSGESHSIENTGNTDLEFLAVIILL | not failed
MSINSNSVFNNSGRVSAAGIASVVGLAVLSAVAVTGGAVKVLVISWVAFAAMALGAWLGARADETNPYRLVWGYGLASGAMVTSAAMFLVPQAMGLGGQAGAARIGGVGIAAGLVTGYGTHTIGHRLTHIETSFDMTTIAIAAHALSAGLVIGLVYASMPDLGILLGLAIVSHKGPAGYAAARRLGRSDKSATALLLPAAGVGLTAIPSALLPVPESALLNAVIFGFAAGIFLHVAMDFLPNCEAGSEIDEVCELHDHSHDLLDELRTHAVGSTVVGAAVIVLAWVAI | failed
MDEQSVESIAEVFRCFICMEKLRDARLCPHCSKLCCFSCIRRWLTEQRAQCPHCRAPLQLRELVNCRWAEEVTQQLDTLQLCSLTKHEENEKDKCENHHEKLSVFCWTCKKCICHQCALWGGMHGGHTFKPL | failed
YLKVFDLDWHPDGMLDAKPALASADWKGLAELAQLSHKALEDAGLPQFEGSNAWAISGSRTQSGKPILAGDPHIRFSVPSVWYEAQLSAPGFELYGHFPALNPFAFLGHNMDFGWSLTMFQNDDVDLIAEKTNPDNPNQVWYHGQWVDMKRTEQQIAVKGQAPVTLTLIESPHGPIVNNVMGKNAGQTPIAMWWSFLVSANPVLDGFYDANRADTLDKMRSAAEKIQSPGLNIVWANAKGDIGWWAAAQLPIRPEGVNPGFILDGSTAQADKLGFYPFSANPHEENPARGYIVSANFQPLSPTGMQIPGYYNPAERGQELNRQLSDSSIKWDLAASKALQLSTQTDYAPSILRPLIPVLRSAISDPDELALVERLASWKGDYPVDSVGATLFN | failed
